This assay deals with Raf-1 serine 338/339. The assay can be described thus: In vitro kinase assay with Raf-1 peptide and Raf-CR3 as substrates. It is filed as biochemical, human. Particulars: PAK3 immunoprecipitated from rat spleen lysates, FIG. 4b. How it is done:
B. Kinase assays. Kinase samples were assessed for their ability to phosphorylate 500 μM Raf-1 peptide (33,[…]345) (SEQ ID NO:4) in the presence of 500 μMATP (containing 2 μCi [γ-^32P]-ATP at 30° C. for 10 minutes. Incubations were analyzed by P-81 phosphocellulose paper assay. Phosphorylation of serine 338/339 in Raf-CR3 was determined by similar incubations containing 1 μg of substrate at 30° C. for 30-60 minutes. Proteins were resolved by SDS-PAGE, transferred to Immobilon-P and the dried, Ponceau S-stained membranes were autoradiographed. Raf-1 kinase activity was measured by the coupled assay method using GST-Mek 1, GST-Erk1 and myelin basic protein by the method of D. Stokoe et al., Science, 264, 1463 (1994).
D. Expression of recombinant Raf-CR3 in E. Coli. DNA sequences encoding residues 307-648 of human c-Raf-1 were amplified by polymerase chain reaction using the 5′-primer […] (SEQ ID NO:5) and the 3′-primer […] (SEQ ID NO:6). The amplified DNA was purified, digested with EcoRI and XhoI and cloned into the Stratagene pCAL-n vector. The entire Raf-CR3 coding sequence was verified by termination reaction PCR DNA sequencing. Raf-CR3 D338E339 and A338A339 substitution mutants were generated by site-directed mutagenesis using the Promega Altered SitesTM in vitro mutagenesis system. Raf-CR3-calmodulin binding protein fusions were expressed in E. coli strain BL21 (pLysS). […]

B1: Immunoprecipitated PAK3: full-length PAK3 immunoprecipitated directly from rat spleen lysates with an anti-PAK3 antibody (protein)
chain: SDNGELEDKPPAPPVRMSSTIFSTGGKDPLSANHSLKPLPSVPEEKKPRNKIISIFSSTEKGSKKKEKERPEISPPSDFEHTIHVGFDAVTGEFTGMPEQWARLLQTSNITKLEQKKNPQAVLDVLKFYDSNTVKQKYLSFTPPEKDGFPSGTPALNTKGSETSAVVTEEDDDDEDAAPPVIAPRPDHTKSIYTRSVIDPIPAPVGDSNVDSGAKSSDKQKKKAKMTDEEIMEKLRTIVSIGDPKKKYTRYEKIGQGASGTVFTATDVALGQEVAIKQINLQKQPKKELIINEILVMKELKNPNIVNFLDSYLVGDELFVVMEYLAGGSLTDVVTETCMDEAQIAAVCRECLQALEFLHANQVIHRDIKSDNVLLGMEGSVKLTDFGFCAQITPEQSKRSTMVGTPYWMAPEVVTRKAYGPKVDIWSLGIMAIEMVEGEPPYLNENPLRALYLIATNGTPELQNPEKLSPIFRDFLNRCLEMDVEKRGSAKELLQHPFLKLAKPLSSLTPLILAAKEAMKSNR
With B1, the “phosphate incorporated into wild type Raf-CR3 versus Raf-CR3[D338E339] or Raf-CR3[A338A339] mutants” value is reported as 4 fold.

(Values after patent US6383734B1, “Method to determine inhibition of PAK3 activation of Raf-1” (Advanced Research and Technology Institute, Inc., priority 1998, dated 2002).)
